Values belong to the molecule of their own block, whether it stands above or below them.
How the values were obtained:
[1] = molecular target: T1, NR2F6-ER (UniProt P10588+P19785, G525R); test: NF-AT/AP-1 promoter luciferase reporter assay in NR2F6-ER transfected Jurkat T cells; type: cell-based, human; conditions: transiently transfected Jurkat T cells
T1 construct: expressed in transfected cells; host or cells: Jurkat T cells (transient electroporation)
Procedure: Jurkat T cells were maintained in RPMI medium supplemented with 10% FCS (Life Technologies, Inc.). Transient transfection of cells was performed by electroporation in a BTX-T820 ElectroSquarePorator (ITC, Biotech, Heidelberg, Germany) apparatus using predetermined optimal conditions: 2×10^7 cells at 450 V/cm and 5 pulses of 99 msec. Optimix medium (Equibio, Kent, UK) was used for studies of promoter reporter gene expression. Reporter gene expression was measured in co-transfection assays using 15 μg of the NR2F6 wild-type or mutant expression vectors and 15 μg of the AP-1/NF-AT promoter firefly luciferase reporter (RLU1). For normalization 0.3 μg of the renilla luciferase reporter vector pTK-Renilla-Luc (Promega, Medison, Wi) (RLU2) has been used.
T1 sequence (P10588+P19785 with tags, fused parts or gaps P19785:G525R): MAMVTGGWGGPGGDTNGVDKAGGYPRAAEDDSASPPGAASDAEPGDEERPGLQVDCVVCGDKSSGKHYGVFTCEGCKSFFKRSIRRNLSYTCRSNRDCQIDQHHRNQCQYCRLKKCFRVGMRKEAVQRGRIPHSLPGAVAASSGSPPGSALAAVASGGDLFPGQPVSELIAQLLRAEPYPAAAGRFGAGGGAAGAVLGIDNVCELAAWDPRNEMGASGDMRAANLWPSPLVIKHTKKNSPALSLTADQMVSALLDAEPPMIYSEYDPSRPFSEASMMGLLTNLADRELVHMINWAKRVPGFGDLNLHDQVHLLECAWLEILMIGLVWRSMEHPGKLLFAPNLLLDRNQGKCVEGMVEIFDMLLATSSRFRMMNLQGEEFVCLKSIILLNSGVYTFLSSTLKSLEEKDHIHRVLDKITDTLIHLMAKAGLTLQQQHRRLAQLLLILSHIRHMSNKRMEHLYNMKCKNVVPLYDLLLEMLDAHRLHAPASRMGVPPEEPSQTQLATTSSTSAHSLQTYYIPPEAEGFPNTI

[2] = tested on: NFAT/AP-1 promoter:luciferase reporter; test: NFAT/AP-1 promoter:luciferase reporter transrepression assay in Jurkat cells; type: cell-based, human; conditions: transient overexpression in Jurkat cells
Procedure: (§1) Jurkat-TAg cells (a kind gift from Dr. Crabtree, Stanford University, CA) have been transiently transfected with circular plasmid DNA by electroporation (BTX-T820 ElectroSquarePorator™, ITC, Biotech, Heidelberg, Germany), using predetermined optimal conditions (1×10^7 cells in 200 μl RPMI medium at 450 V/cm and 5 pulses of 99 msec), yielding approx. 40% transfection efficiency. NF-AT:AP-1 reporter gene expression was measured in transient cotransfection assays using 10 μg pSRα-CD28, 15 μg of the GFP or Nr2f6 expression vectors and 15 μg of the promoter firefly luciferase reporter (RLU1). The latter were a NF-AT:AP-1 composite site reporter (Macian et al., 2001), a NF-AT reporter construct containing three tandem copies of the NF-AT minimal consensus sequence and the proximal IL-17A promoter reporter (Liu et al., 2004). The proximal IL-17A promoter is also described elsewhere herein. After 21 h cells were stimulated with solid-phase CD3 and CD28 agonistic antibodies for 16 h or left unstimulated, as indicated and the firefly luciferase was measured employing the luciferase detection kit (Promega, Madison, Wis.) and the βJet-Luminometer (WALLAC, Turku, Finland).

[3] = tested on: CD4+ T cells; test: IL-2 secretion of transfected CD4+ T cells upon CD3 plus CD28 stimulation; type: cell-based, mouse; conditions: vs control transfection
Procedure: CD4+ T cells were negatively selected by magnetic cell sorting (Miltenyi Biotec). T cell populations were typically 95% CD4+, as determined by staining and flow cytometry. Cells were resuspended in solution from Nucleofactor mouse T cell kit and program X-01 following the Amaxa guidelines for cell-line transfection. In brief, up to 1×10^7 cells were mixed with 1.5 μM of synthetic ON-TARGETpIus siRNA predesigned by Dharmacon (i.e., order code 045088) as pool (see SEQ ID NOs: 19 to 26) or ON-TARGETplussiCONTROL nontargeting pool were nucleofected with the Amaxy Nucleofactor apparatus and immediately transferred into 37° C. prewarmed culture medium and cultured for a minimum of 24 hours before experimental analysis; see also FIG. 16.
Analysis of cytokine production: Cytokine production of mouse CD4^+ T cells after Th17 polarizing stimulation was assessed via the BioPlex technology (BioRad) according to manufacturer's instructions.

[4] = tested on: IL-17A promoter:luciferase reporter; test: IL-17A promoter:luciferase reporter transrepression assay in Jurkat cells; type: cell-based, human; conditions: transient overexpression in Jurkat cells
Procedure: as §1

[5] = molecular target: T2, NR2F6 (Homo sapiens, UniProt P10588); test: RARE containing renilla luciferase reporter assay in NR2F6 transfected Jurkat T cells; type: cell-based; conditions: CD3/CD28 with or without RA 20 microM
T2 construct: expressed in transfected cells; host or cells: Jurkat T cells (transient electroporation)
T2 sequence (P10588 1-404): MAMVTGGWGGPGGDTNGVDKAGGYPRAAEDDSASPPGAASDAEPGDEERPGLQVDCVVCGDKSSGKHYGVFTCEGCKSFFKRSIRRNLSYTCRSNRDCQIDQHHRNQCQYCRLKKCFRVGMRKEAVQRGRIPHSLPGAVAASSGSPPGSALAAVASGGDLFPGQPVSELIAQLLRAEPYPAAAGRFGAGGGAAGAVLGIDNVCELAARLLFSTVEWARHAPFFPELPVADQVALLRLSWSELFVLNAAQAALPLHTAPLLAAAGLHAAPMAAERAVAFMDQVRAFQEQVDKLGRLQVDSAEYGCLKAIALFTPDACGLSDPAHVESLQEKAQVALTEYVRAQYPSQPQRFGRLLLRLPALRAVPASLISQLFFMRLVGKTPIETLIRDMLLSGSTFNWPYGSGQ
Procedure: Jurkat T cells were maintained in RPMI medium supplemented with 10% FCS (Life Technologies, Inc.). Transient transfection of cells was performed by electroporation in a BTX-T820 ElectroSquarePorator (ITC, Biotech, Heidelberg, Germany) apparatus using predetermined optimal conditions: 2×10^7 cells at 450 V/cm and 5 pulses of 99 msec. Optimix medium (Equibio, Kent, UK) was used for studies of promoter reporter gene expression. Reporter gene expression was measured in co-transfection assays using 15 μg of the NR2F6 wild type or mutant expression vectors and 5 μg of the RARE containing renilla luciferase reporter vector pTK-Renilla-Luc (Promega, Medison, Wi). After 24 hrs cells were stimulated with solid phase CD3 and CD28 antibodies with or without retinoic acid (RA at 20 microM) for 16 hrs, as indicated.

CD3/CD28-induced NF-AT/AP-1 composite element-dependent reporter [1]: repressed
B1: NR2F6-ER: conditionally activated NR2F6 estrogen-receptor ligand binding domain mutant (ERmut-LBD) fusion protein, SEQ ID NO: 10 (protein)
chain: MAMVTGGWGGPGGDTNGVDKAGGYPRAAEDDSASPPGAASDAEPGDEERPGLQVDCVVCGDKSSGKHYGVFTCEGCKSFFKRSIRRNLSYTCRSNRDCQIDQHHRNQCQYCRLKKCFRVGMRKEAVQRGRIPHSLPGAVAASSGSPPGSALAAVASGGDLFPGQPVSELIAQLLRAEPYPAAAGRFGAGGGAAGAVLGIDNVCELAWDPRNEMGASGDMRAANLWPSPLVIKHTKKNSPALSLTADQMVSALLDAEPPMIYSEYDPSRPFSEASMMGLLTNLADRELVHMINWAKRVPGFGDLNLHDQVHLLECAWLEILMIGLVWRSMEHPGKLLFAPNLLLDRNQGKCVEGMVEIFDMLLATSSRFRMMNLQGEEFVCLKSIILLNSGVYTFLSSTLKSLEEKDHIHRVLDKITDTLIHLMAKAGLTLQQQHRRLAQLLLILSHIRHMSNKGMEHLYNMKCKNVVPLYDLLLEMLDAHRLHAPASRMGVPPEEPSQTQLATTSSTSAHSLQTYYIPPEAEGFPNTI
modifications: /note=“Description of artificial sequence amino acid sequence of NR2F6 wild-type Er-LBD fusion mutant”

B2: NR2F6: recombinant overexpressed nuclear receptor subfamily 2, group F, member 6 (Ear2), SEQ ID NO: 2 (protein, listed as Homo sapiens)
chain: MAMVTGGWGGPGGDTNGVDKAGGYPRAAEDDSASPPGAASDAEPGDEERPGLQVDCVVCGDKSSGKHYGVFTCEGCKSFFKRSIRRNLSYTCRSNRDCQIDQHHRNQCQYCRLKKCFRVGMRKEAVQRGRIPHSLPGAVAASSGSPPGSALAAVASGGDLFPGQPVSELIAQLLRAEPYPAAAGRFGAGGGAAGAVLGIDNVCELAARLLFSTVEWARHAPFFPELPVADQVALLRLSWSELFVLNAAQAALPLHTAPLLAAAGLHAAPMAAERAVAFMDQVRAFQEQVDKLGRLQVDSAEYGCLKAIALFTPDACGLSDPAHVESLQEKAQVALTEYVRAQYPSQPQRFGRLLLRLPALRAVPASLISQLFFMRLVGKTPIETLIRDMLLSGSTFNWPYGSGQ
trans-repression of CD3/CD28 activation-induced NFAT/AP-1 promoter:luciferase reporter [2]: robust and reproducible trans-repression
IL-2 cytokine secretion [3]: significantly suppresses IL-2 secretion responses
trans-repression of CD3/CD28 activation-induced IL-17A promoter:luciferase reporter [4]: robust and reproducible trans-repression

B3: C112S: C112S zinc finger mutant of NR2F6, defective in DNA binding, SEQ ID NOs: 30 and 31 (protein)
chain: MAMVTGGWGGPGGDTNGVDKAGGYPRAAEDDSASPPGAASDAEPGDEERPGLQVDCVVCGDKSSGKHYGVFTCEGCKSFFKRSIRRNLSYTCRSNRDCQIDQHHRNQCQYSRLKKCFRVGMRKEAVQRGRIPHSLPGAVAASSGSPPGSALAAVASGGDLFPGQPVSELIAQLLRAEPYPAAAGRFGAGGGAAGAVLGIDNVCELAARLLFSTVEWARHAPFFPELPVADQVALLRLSWSELFVLNAAQAALPLHTAPLLAAAGLHAAPMAAERAVAFMDQVRAFQEQVDKLGRLQVDSAEYGCLKAIALFTPDACGLSDPAHVESLQEKAQVALTEYVRAQYPSQPQRFGRLLLRLPALRAVPASLISQLFFMRLVGKTPIETLIRDMLLSGSTFNWPYGSGQ
modifications: /note=“Description of artificial sequence amino acid sequence of C112S mutated NR2F6”
trans-repression of CD3/CD28 activation-induced NFAT/AP-1 promoter:luciferase reporter [2]: lost its transcriptional repressor activity
trans-repression of CD3/CD28 activation-induced IL-17A promoter:luciferase reporter [4]: lost its transcriptional repressor activity
transcriptional repressor activity (RARE reporter) [5]: lost its transcriptional repressor activity

B4: S83E: S83E mutant of NR2F6, Ser-83 phospho-mimic, DNA-binding deficient, SEQ ID NO: 8 (protein, listed as Homo sapiens)
chain: MAMVTGGWGGPGGDTNGVDKAGGYPRAAEDDSASPPGAASDAEPGDEERPGLQVDCVVCGDKSSGKHYGVFTCEGCKSFFKREIRRNLSYTCRSNRDCQIDQHHRNQCQYCRLKKCFRVGMRKEAVQRGRIPHSLPGAVAASSGSPPGSALAAVASGGDLFPGQPVSELIAQLLRAEPYPAAAGRFGAGGGAAGAVLGIDNVCELAARLLFSTVEWARHAPFFPELPVADQVALLRLSWSELFVLNAAQAALPLHTAPLLAAAGLHAAPMAAERAVAFMDQVRAFQEQVDKLGRLQVDSAEYGCLKAIALFTPDACGLSDPAHVESLQEKAQVALTEYVRAQYPSQPQRFGRLLLRLPALRAVPASLISQLFFMRLVGKTPIETLIRDMLLSGSTFNWPYGSGQ
modifications: VARIANT (83)..(83) S83E mutation
trans-repression of CD3/CD28 activation-induced NFAT/AP-1 promoter:luciferase reporter [2]: not able to suppress
trans-repression of CD3/CD28 activation-induced IL-17A promoter:luciferase reporter [4]: not able to suppress
transcriptional repressor activity (RARE reporter) [5]: lost its transcriptional repressor activity

B5: NR2F2 wild type: the closest relative of NR2F6, used as control (protein, UniProt P24468 1-414, looked up)
COUP transcription factor 2: MAMVVSTWRDPQDEVPGSQGSQASQAPPVPGPPPGAPHTPQTPGQGGPASTPAQTAAGGQGGPGGPGSDKQQQQQHIECVVCGDKSSGKHYGQFTCEGCKSFFKRSVRRNLSYTCRANRNCPIDQHHRNQCQYCRLKKCLKVGMRREAVQRGRMPPTQPTHGQFALTNGDPLNCHSYLSGYISLLLRAEPYPTSRFGSQCMQPNNIMGIENICELAARMLFSAVEWARNIPFFPDLQITDQVALLRLTWSELFVLNAAQCSMPLHVAPLLAAAGLHASPMSADRVVAFMDHIRIFQEQVEKLKALHVDSAEYSCLKAIVLFTSDACGLSDVAHVESLQEKSQCALEEYVRSQYPNQPTRFGKLLLRLPSLRTVSSSVIEQLFFVRLVGKTPIETLIRDMLLSGSSFNWPYMAIQ
trans-repression of CD3/CD28 activation-induced NFAT/AP-1 promoter:luciferase reporter [2]: not able to suppress
trans-repression of CD3/CD28 activation-induced IL-17A promoter:luciferase reporter [4]: not able to suppress

Source: patent publication US20110239311A1, “Agonists of NR2F6 For Immunosupression” (Medizinische Universitat Innsbruck, priority 2008, published 2011)
